Assay results published in patent US20130005646A1 (Novo Nordisk, published 2013).
Starred links: 1 amine or outer side, 2 acyl side, 3 side chain; linkers in the order of their positions; H or OH if unused. Positions of bridges follow the written chain, without caps; N, C: chain ends. *: point of attachment. C20 diacid = O=C(O)CCCCCCCCCCCCCCCCCCC(=O)*; C18 diacid = O=C(O)CCCCCCCCCCCCCCCCC(=O)*; γGlu = O=C(O)[C@H](CCC(=O)[*:2])N[*:1]

T1: human amylin 3(a) receptor (human calcitonin receptor + RAMP-3) (human, UniProt P30988 25-474; O60896 24-148)
T1 sequence (looked up) 1: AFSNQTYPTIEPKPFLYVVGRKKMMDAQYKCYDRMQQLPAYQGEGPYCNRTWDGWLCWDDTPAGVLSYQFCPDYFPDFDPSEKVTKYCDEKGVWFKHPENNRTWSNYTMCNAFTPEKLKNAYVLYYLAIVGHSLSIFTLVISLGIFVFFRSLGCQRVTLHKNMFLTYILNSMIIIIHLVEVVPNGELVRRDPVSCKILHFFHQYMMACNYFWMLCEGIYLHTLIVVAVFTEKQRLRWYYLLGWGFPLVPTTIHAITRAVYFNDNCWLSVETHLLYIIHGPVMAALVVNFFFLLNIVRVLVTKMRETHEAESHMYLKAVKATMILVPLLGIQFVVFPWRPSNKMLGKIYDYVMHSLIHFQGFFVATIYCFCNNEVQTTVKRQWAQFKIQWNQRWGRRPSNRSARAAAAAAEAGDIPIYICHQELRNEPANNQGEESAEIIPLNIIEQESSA
T1 sequence (looked up) 2: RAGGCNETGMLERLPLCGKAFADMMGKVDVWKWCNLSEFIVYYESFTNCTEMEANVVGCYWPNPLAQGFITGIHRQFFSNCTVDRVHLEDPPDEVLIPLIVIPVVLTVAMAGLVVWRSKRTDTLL

T2: human calcitonin (a) receptor (human, UniProt P30988 25-474)
T2 sequence (looked up): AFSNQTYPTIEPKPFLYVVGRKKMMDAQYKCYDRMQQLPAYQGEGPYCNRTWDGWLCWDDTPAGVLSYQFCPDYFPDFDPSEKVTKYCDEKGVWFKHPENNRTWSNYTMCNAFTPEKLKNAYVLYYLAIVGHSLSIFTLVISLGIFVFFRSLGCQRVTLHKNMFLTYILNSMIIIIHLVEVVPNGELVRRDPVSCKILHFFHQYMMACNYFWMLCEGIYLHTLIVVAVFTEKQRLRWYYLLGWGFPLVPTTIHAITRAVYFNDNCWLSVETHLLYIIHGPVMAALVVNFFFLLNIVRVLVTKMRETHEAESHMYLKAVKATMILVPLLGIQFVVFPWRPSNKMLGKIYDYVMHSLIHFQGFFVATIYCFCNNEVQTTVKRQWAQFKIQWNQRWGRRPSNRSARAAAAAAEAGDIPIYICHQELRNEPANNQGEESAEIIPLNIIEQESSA

T3: rat calcitonin (a) receptor (rat, UniProt P32214 25-516)
T3 sequence (looked up): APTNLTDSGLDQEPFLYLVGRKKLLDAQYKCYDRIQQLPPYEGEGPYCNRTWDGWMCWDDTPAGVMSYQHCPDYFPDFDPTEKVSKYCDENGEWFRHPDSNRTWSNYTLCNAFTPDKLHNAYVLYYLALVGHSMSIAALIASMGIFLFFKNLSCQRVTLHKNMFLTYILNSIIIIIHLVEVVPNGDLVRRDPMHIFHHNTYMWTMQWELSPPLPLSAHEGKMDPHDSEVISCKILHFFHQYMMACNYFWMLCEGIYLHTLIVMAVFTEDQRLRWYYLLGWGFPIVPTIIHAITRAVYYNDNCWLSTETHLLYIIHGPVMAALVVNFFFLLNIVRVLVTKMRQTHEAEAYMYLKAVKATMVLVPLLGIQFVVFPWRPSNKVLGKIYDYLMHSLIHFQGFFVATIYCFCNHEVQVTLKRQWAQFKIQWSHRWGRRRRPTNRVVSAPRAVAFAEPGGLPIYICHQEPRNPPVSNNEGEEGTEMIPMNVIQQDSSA

T4: rat amylin 3(a) receptor (rat calcitonin(a) receptor + rat RAMP3) (rat, UniProt P32214 25-516; Q9JJ73 23-147)
T4 sequence (looked up) 1: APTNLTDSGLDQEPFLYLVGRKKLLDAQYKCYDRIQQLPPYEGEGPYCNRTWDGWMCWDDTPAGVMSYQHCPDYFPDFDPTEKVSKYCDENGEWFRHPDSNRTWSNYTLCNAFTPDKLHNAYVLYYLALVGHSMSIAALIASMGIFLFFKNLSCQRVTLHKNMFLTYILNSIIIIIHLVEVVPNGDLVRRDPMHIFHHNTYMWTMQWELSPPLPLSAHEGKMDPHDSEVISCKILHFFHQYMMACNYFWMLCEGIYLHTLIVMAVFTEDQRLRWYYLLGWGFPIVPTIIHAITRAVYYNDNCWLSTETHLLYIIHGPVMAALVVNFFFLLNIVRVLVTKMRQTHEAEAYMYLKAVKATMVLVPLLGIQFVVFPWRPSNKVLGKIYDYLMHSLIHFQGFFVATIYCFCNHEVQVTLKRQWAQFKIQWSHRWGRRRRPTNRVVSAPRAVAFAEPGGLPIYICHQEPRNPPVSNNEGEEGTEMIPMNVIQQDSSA
T4 sequence (looked up) 2: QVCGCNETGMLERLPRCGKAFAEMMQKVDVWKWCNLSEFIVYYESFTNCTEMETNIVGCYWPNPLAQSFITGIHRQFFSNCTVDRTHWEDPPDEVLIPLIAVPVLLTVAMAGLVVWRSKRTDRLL


Experiments:
Assay in all cases: cell-based or functional assay
[1] = target: T1, human amylin 3(a) receptor (human …)
[2] = target: T2, human calcitonin (a) receptor
[3] = target: T3, rat calcitonin (a) receptor
[4] = target: T4, rat amylin 3(a) receptor (rat …)

Binder	Amylin receptor human EC50 [1] [nM]	CTa receptor human EC50 [2] [nM]	CTa receptor rat EC50 [3] [nM]	Amylin receptor rat EC50 [4] [nM]
{C18 diacid-γGlu}-KCNTATCATQRLAEFLHHSSNNFGPILPPTNVGSNTY-NH2 (disulfide 2-7; not fully specified; printed as N-alpha-[(S)-4-Carboxy-4-(17-carboxyheptadecanoylamino)butyryl]-[Glu14,His17]-pramlintide) [N-alpha-[(S)-4-Carboxy-4-(17-carboxyheptadecanoylamino)butyryl]-[Glu14,His17]-pramlintide]	0.0469	0.0792	0.433	0.122
{C20 diacid-γGlu}-EKCNTATCATQRLAEFLRHSSNNFGPILPPTNVGSHTY-NH2 (disulfide 3-8; SMILES CC[C@H](C)[C@H](NC(=O)[C@@H]1CCCN1C(=O)CNC(=O)[C@H](Cc1ccccc1)NC(=O)[C@H](CC(N)=O)NC(=O)[C@H](CC(N)=O)NC(=O)[C@H](CO)NC(=O)[C@H](CO)NC(=O)[C@H](Cc1c[nH]cn1)NC(=O)[C@H](CCCNC(=N)N)NC(=O)[C@H](CC(C)C)NC(=O)[C@H](Cc1ccccc1)NC(=O)[C@H](CCC(=O)O)NC(=O)[C@H](C)NC(=O)[C@H](CC(C)C)NC(=O)[C@H](CCCNC(=N)N)NC(=O)[C@H](CCC(N)=O)NC(=O)[C@@H](NC(=O)[C@H](C)NC(=O)[C@@H]1CSSC[C@H](NC(=O)[C@H](CCCCN)NC(=O)[C@H](CCC(=O)O)NC(=O)CC[C@H](NC(=O)CCCCCCCCCCCCCCCCCCC(=O)O)C(=O)O)C(=O)N[C@@H](CC(N)=O)C(=O)N[C@@H]([C@@H](C)O)C(=O)N[C@@H](C)C(=O)N[C@@H]([C@@H](C)O)C(=O)N1)[C@@H](C)O)C(=O)N[C@@H](CC(C)C)C(=O)N1CCC[C@H]1C(=O)N1CCC[C@H]1C(=O)N[C@H](C(=O)N[C@@H](CC(N)=O)C(=O)N[C@H](C(=O)NCC(=O)N[C@@H](CO)C(=O)N[C@@H](Cc1c[nH]cn1)C(=O)N[C@H](C(=O)N[C@@H](Cc1ccc(O)cc1)C(N)=O)[C@@H](C)O)C(C)C)[C@@H](C)O) [N-alpha-[(S)-4-Carboxy-4-(19-carboxynonadecanoylamino)butyryl]-Glu-[Glu14,Arg17,His35]-pramlintide]	0.117	0.606	2.23	0.063
{C18 diacid-γGlu}-HCNTATCATQRLAEFLHHSSNNFGPILPPTNVGSNTY-NH2 (disulfide 2-7; not fully specified; printed as N-alpha-[(S)-4-Carboxy-4-(17-carboxyheptadecanoylamino)butyryl]-[His1,Glu14,His17]-pramlintide) [N-alpha-[(S)-4-Carboxy-4-(17-carboxyheptadecanoylamino)butyryl]-[His1,Glu14,His17]-pramlintide]	0.0425	0.112	0.375	0.015
{C18 diacid-γGlu}-EKCNTATCATQRLAEFLHHSSNNFGPILPPTNVGSNTY-NH2 (disulfide 3-8; SMILES CC[C@H](C)[C@H](NC(=O)[C@@H]1CCCN1C(=O)CNC(=O)[C@H](Cc1ccccc1)NC(=O)[C@H](CC(N)=O)NC(=O)[C@H](CC(N)=O)NC(=O)[C@H](CO)NC(=O)[C@H](CO)NC(=O)[C@H](Cc1c[nH]cn1)NC(=O)[C@H](Cc1c[nH]cn1)NC(=O)[C@H](CC(C)C)NC(=O)[C@H](Cc1ccccc1)NC(=O)[C@H](CCC(=O)O)NC(=O)[C@H](C)NC(=O)[C@H](CC(C)C)NC(=O)[C@H](CCCNC(=N)N)NC(=O)[C@H](CCC(N)=O)NC(=O)[C@@H](NC(=O)[C@H](C)NC(=O)[C@@H]1CSSC[C@H](NC(=O)[C@H](CCCCN)NC(=O)[C@H](CCC(=O)O)NC(=O)CC[C@H](NC(=O)CCCCCCCCCCCCCCCCC(=O)O)C(=O)O)C(=O)N[C@@H](CC(N)=O)C(=O)N[C@@H]([C@@H](C)O)C(=O)N[C@@H](C)C(=O)N[C@@H]([C@@H](C)O)C(=O)N1)[C@@H](C)O)C(=O)N[C@@H](CC(C)C)C(=O)N1CCC[C@H]1C(=O)N1CCC[C@H]1C(=O)N[C@H](C(=O)N[C@@H](CC(N)=O)C(=O)N[C@H](C(=O)NCC(=O)N[C@@H](CO)C(=O)N[C@@H](CC(N)=O)C(=O)N[C@H](C(=O)N[C@@H](Cc1ccc(O)cc1)C(N)=O)[C@@H](C)O)C(C)C)[C@@H](C)O) [N-alpha-[(S)-4-Carboxy-4-(17-carboxyheptadecanoylamino)butyryl]-Glu-[Glu14,His17]-pramlintide]	0.0739	0.274	2.43	0.135

Further lines, results first:

Amylin receptor human EC50 [1] [nM]	CTa receptor human EC50 [2] [nM]	CTa receptor rat EC50 [3] [nM]	Amylin receptor rat EC50 [4] [nM]	Binder
0.299	0.352	4.97	0.643	{C20 diacid-γGlu}-EKCNTATCATQRLAEFLHHSSNNFGPILPPTNVGSHTY-NH2 (disulfide 3-8; not fully specified; printed as N-alpha-[(S)-4-Carboxy-4-(19-carboxynonadecanoylamino)butyryl]-Glu-[Glu14,His17,His35]-pramlintide) [N-alpha-[(S)-4-Carboxy-4-(19-carboxynonadecanoylamino)butyryl]-Glu-[Glu14,His17,His35]-pramlintide]
0.111	0.387	2.84	0.511	{C20 diacid-γGlu}-KCNTATCATQRLAEFLRHSSNNFGPILPPTNVGSHTY-NH2 (disulfide 2-7; SMILES CC[C@H](C)[C@H](NC(=O)[C@@H]1CCCN1C(=O)CNC(=O)[C@H](Cc1ccccc1)NC(=O)[C@H](CC(N)=O)NC(=O)[C@H](CC(N)=O)NC(=O)[C@H](CO)NC(=O)[C@H](CO)NC(=O)[C@H](Cc1c[nH]cn1)NC(=O)[C@H](CCCNC(=N)N)NC(=O)[C@H](CC(C)C)NC(=O)[C@H](Cc1ccccc1)NC(=O)[C@H](CCC(=O)O)NC(=O)[C@H](C)NC(=O)[C@H](CC(C)C)NC(=O)[C@H](CCCNC(=N)N)NC(=O)[C@H](CCC(N)=O)NC(=O)[C@@H](NC(=O)[C@H](C)NC(=O)[C@@H]1CSSC[C@H](NC(=O)[C@H](CCCCN)NC(=O)CC[C@H](NC(=O)CCCCCCCCCCCCCCCCCCC(=O)O)C(=O)O)C(=O)N[C@@H](CC(N)=O)C(=O)N[C@@H]([C@@H](C)O)C(=O)N[C@@H](C)C(=O)N[C@@H]([C@@H](C)O)C(=O)N1)[C@@H](C)O)C(=O)N[C@@H](CC(C)C)C(=O)N1CCC[C@H]1C(=O)N1CCC[C@H]1C(=O)N[C@H](C(=O)N[C@@H](CC(N)=O)C(=O)N[C@H](C(=O)NCC(=O)N[C@@H](CO)C(=O)N[C@@H](Cc1c[nH]cn1)C(=O)N[C@H](C(=O)N[C@@H](Cc1ccc(O)cc1)C(N)=O)[C@@H](C)O)C(C)C)[C@@H](C)O) [N-alpha-[(S)-4-Carboxy-4-(19-carboxynonadecanoylamino)butyryl]-[Glu14,Arg17,His35]-pramlintide]
0.152	0.163	0.673	0.262	{C20 diacid-γGlu}-KCNTATCATQRLAEFLHHSSNNFGPILPPTNVGSHTY-NH2 (disulfide 2-7; SMILES CC[C@H](C)[C@H](NC(=O)[C@@H]1CCCN1C(=O)CNC(=O)[C@H](Cc1ccccc1)NC(=O)[C@H](CC(N)=O)NC(=O)[C@H](CC(N)=O)NC(=O)[C@H](CO)NC(=O)[C@H](CO)NC(=O)[C@H](Cc1c[nH]cn1)NC(=O)[C@H](Cc1c[nH]cn1)NC(=O)[C@H](CC(C)C)NC(=O)[C@H](Cc1ccccc1)NC(=O)[C@H](CCC(=O)O)NC(=O)[C@H](C)NC(=O)[C@H](CC(C)C)NC(=O)[C@H](CCCNC(=N)N)NC(=O)[C@H](CCC(N)=O)NC(=O)[C@@H](NC(=O)[C@H](C)NC(=O)[C@@H]1CSSC[C@H](NC(=O)[C@H](CCCCN)NC(=O)CC[C@H](NC(=O)CCCCCCCCCCCCCCCCCCC(=O)O)C(=O)O)C(=O)N[C@@H](CC(N)=O)C(=O)N[C@@H]([C@@H](C)O)C(=O)N[C@@H](C)C(=O)N[C@@H]([C@@H](C)O)C(=O)N1)[C@@H](C)O)C(=O)N[C@@H](CC(C)C)C(=O)N1CCC[C@H]1C(=O)N1CCC[C@H]1C(=O)N[C@H](C(=O)N[C@@H](CC(N)=O)C(=O)N[C@H](C(=O)NCC(=O)N[C@@H](CO)C(=O)N[C@@H](Cc1c[nH]cn1)C(=O)N[C@H](C(=O)N[C@@H](Cc1ccc(O)cc1)C(N)=O)[C@@H](C)O)C(C)C)[C@@H](C)O) [N-alpha-[(S)-4-Carboxy-4-(19-carboxynonadecanoylamino)butyryl]-[Glu14,His17,His35]-pramlintide]
0.062	0.0537	0.076	0.16	{C20 diacid-γGlu}-KCNTATCATQRLAEFLHHSSNNFGPILPPTNVGSNTP-NH2 (disulfide 2-7; not fully specified; printed as N-alpha-[(S)-4-Carboxy-4-(19-carboxynonadecanoylamino)butyryl]-[Glu14,His17,Pro37]-pramlintide) [N-alpha-[(S)-4-Carboxy-4-(19-carboxynonadecanoylamino)butyryl]-[Glu14,His17,Pro37]-pramlintide]
